Data: FireProtDB (doi:10.1110/ps.9.2.387)

Conditions: Escherichia coli (strain K12), Thermal, DSC, NaCl 100 mM, reversible: yes(>85%)
[1] = pH 5.5, Sodium cacodylate 10 mM

Sequence of Cold shock protein CspA wild type, P0A9X9 (P0A9X9 whole entry): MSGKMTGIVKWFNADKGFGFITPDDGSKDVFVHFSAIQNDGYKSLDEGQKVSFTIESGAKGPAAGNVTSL

Substance: Cold shock protein CspA wild type, P0A9X9
- Tm (pH 4, Sodium acetate 10 mM): 33.2 °C
- unfolding enthalpy (calorimetric) (pH 4, Sodium acetate 10 mM): 22.7 kcal/mol
- Tm (pH 4.5, Sodium acetate 10 mM): 42.1 °C
- unfolding enthalpy (calorimetric) (pH 4.5, Sodium acetate 10 mM): 28.9 kcal/mol
- Tm (pH 5, Sodium acetate 10 mM): 47.7 °C
- unfolding enthalpy (calorimetric) (pH 5, Sodium acetate 10 mM): 33 kcal/mol
- Tm [1]: 54.4 °C
- unfolding enthalpy (calorimetric) [1]: 39.9 kcal/mol
- Tm (pH 6, MOPS 10 mM): 54.1 °C
- unfolding enthalpy (calorimetric) (pH 6, MOPS 10 mM): 39.9 kcal/mol
- Tm (pH 6, PIPES 10 mM): 53.1 °C
- unfolding enthalpy (calorimetric) (pH 6, PIPES 10 mM): 36.1 kcal/mol
- Tm (pH 6, Sodium cacodylate 10 mM): 56.5 °C
- unfolding enthalpy (calorimetric) (pH 6, Sodium cacodylate 10 mM): 44.9 kcal/mol
- Tm (pH 6, Sodium phosphate 10 mM): 55.9 °C
- unfolding enthalpy (calorimetric) (pH 6, Sodium phosphate 10 mM): 39.4 kcal/mol
- Tm (pH 6.5, HEPES 10 mM): 56.5 °C
- unfolding enthalpy (calorimetric) (pH 6.5, HEPES 10 mM): 43.5 kcal/mol
- Tm (pH 6.5, MOPS 10 mM): 56.1 °C
- unfolding enthalpy (calorimetric) (pH 6.5, MOPS 10 mM): 39.9 kcal/mol
- Tm (pH 6.5, PIPES 10 mM): 55.2 °C
- unfolding enthalpy (calorimetric) (pH 6.5, PIPES 10 mM): 41.4 kcal/mol
- Tm (pH 6.5, Sodium citrate 10 mM): 56.8 °C
- unfolding enthalpy (calorimetric) (pH 6.5, Sodium citrate 10 mM): 45.2 kcal/mol
- Tm (pH 6.5, Sodium phosphate 10 mM): 56.1 °C
- unfolding enthalpy (calorimetric) (pH 6.5, Sodium phosphate 10 mM): 43.3 kcal/mol
- Tm (pH 6.5, imidazole 10 mM): 53.7 °C
- unfolding enthalpy (calorimetric) (pH 6.5, imidazole 10 mM): 39.2 kcal/mol
- Tm (pH 7, HEPES 10 mM): 57.6 °C
- unfolding enthalpy (calorimetric) (pH 7, HEPES 10 mM): 47.6 kcal/mol
- Tm (pH 7, MOPS 10 mM): 56.4 °C
- unfolding enthalpy (calorimetric) (pH 7, MOPS 10 mM): 40.6 kcal/mol
- Tm (pH 7, PIPES 10 mM): 55.7 °C
- unfolding enthalpy (calorimetric) (pH 7, PIPES 10 mM): 41.4 kcal/mol
- Tm (pH 7, Sodium cacodylate 10 mM): 57 °C
- unfolding enthalpy (calorimetric) (pH 7, Sodium cacodylate 10 mM): 47.3 kcal/mol
- Tm (pH 7, Sodium citrate 10 mM): 57 °C
- unfolding enthalpy (calorimetric) (pH 7, Sodium citrate 10 mM): 46.4 kcal/mol
- Tm (pH 7, Sodium phosphate 10 mM): 57 °C
- unfolding enthalpy (calorimetric) (pH 7, Sodium phosphate 10 mM): 43.3 kcal/mol
- Tm (pH 7, imidazole 10 mM): 55.8 °C
- unfolding enthalpy (calorimetric) (pH 7, imidazole 10 mM): 40.1 kcal/mol
- Tm (pH 7.5, HEPES 10 mM): 57.8 °C
- unfolding enthalpy (calorimetric) (pH 7.5, HEPES 10 mM): 49 kcal/mol
- Tm (pH 7.5, MOPS 10 mM): 56.2 °C
- unfolding enthalpy (calorimetric) (pH 7.5, MOPS 10 mM): 41.4 kcal/mol
- Tm (pH 7.5, PIPES 10 mM): 56 °C
- unfolding enthalpy (calorimetric) (pH 7.5, PIPES 10 mM): 42.3 kcal/mol
- Tm (pH 7.5, Sodium citrate 10 mM): 57.3 °C
- unfolding enthalpy (calorimetric) (pH 7.5, Sodium citrate 10 mM): 48.3 kcal/mol
- Tm (pH 7.5, Sodium phosphate 10 mM): 57.1 °C
- unfolding enthalpy (calorimetric) (pH 7.5, Sodium phosphate 10 mM): 46.9 kcal/mol
- Tm (pH 7.5, imidazole 10 mM): 55.9 °C
- unfolding enthalpy (calorimetric) (pH 7.5, imidazole 10 mM): 39 kcal/mol
- Tm (pH 8, MOPS 10 mM): 57.1 °C
- unfolding enthalpy (calorimetric) (pH 8, MOPS 10 mM): 42.5 kcal/mol
- Tm (pH 8, imidazole 10 mM): 56.8 °C
- unfolding enthalpy (calorimetric) (pH 8, imidazole 10 mM): 38.2 kcal/mol
- Tm (pH 8.5, HEPES 10 mM): 56.5 °C
- unfolding enthalpy (calorimetric) (pH 8.5, HEPES 10 mM): 42.1 kcal/mol
- Tm (pH 8.5, Sodium borate 10 mM): 57.7 °C
- unfolding enthalpy (calorimetric) (pH 8.5, Sodium borate 10 mM): 44.5 kcal/mol
- Tm (pH 8.7, Sodium borate 10 mM): 57.6 °C
- unfolding enthalpy (calorimetric) (pH 8.7, Sodium borate 10 mM): 43.7 kcal/mol
